# Data taken from US20250163129A1 (IMMUNOS THERAPEUTICS, published 2025).
# Target: T1, HLA-B57(A46E/V97R).β2m IgG4 Fc fusion protein dimer associated with β2m (human; homo sapiens)
# T1 construct: also called iosH2; losH2
# Experiment: ELISA, biotinylated LILRB2 on streptavidin plate
# Description: The inventors went on to dissect the immunological properties most relevant to tumor immunity associated with HLA-B57^{(A46E/V97R)} formats, all lacking association with a peptide epitope associated with the peptide-binding groove of the HLA class I domain of the fusion protein. The affinity of interaction of LILRB2 with wildtype HLA-B57 fusion protein (dimers) lacking β2m, HLA-B57^{(A46E/V97R)} fusion protein (dimers) lacking β2m, and HLA-B57^{(A46E/V97R)} fusion protein dimers still bound to β2m was measured using the enzyme-linked immunosorbent assay (ELISA) method. Flat bottom Pierce™ Streptavidin coated high binding capacity 96 well plates (Pierce #15500) were coated with 50 μl of c-terminally biotinylated antigen molecules (LILRB2, BPS Bioscience #100335) immobilized at a final concentration of 5 μg/ml in PBS buffer. PBS and IgG isotype were used as negative controls. A serial dilution of HLA-B57, or HLA-B57^{(A46E/V97R)} lacking β2m, and HLA-B57^{(A46E/V97R)}.β2m (eight concentration points: 10, 2.5, 1, 0.25, 0.1, 0.025, 0.01, 0.0025 μg/ml) was applied (50 μl) in duplicates. An APC conjugated goat anti-human IgG antibody (Jackson Immuno Research #109-135-098) with 1:100 dilution in TBS (50 μl) was used for detection. Finally, 50 μl TBS in each well was added and a fluorescence scan was performed with APC excitation and emission wavelengths of 650 nm & 660 nm, respectively. […]
binder,measurement,value
"LILRB2, c-terminally biotinylated (BPS Bioscience #100335) (receptor, UniProt Q8N423 22-458, looked up, C-terminal biotin, Bought reagent immobilised on streptavidin plates) QTGTIPKPTLWAEPDSVITQGSPVTLSCQGSLEAQEYRLYREKKSASWITRIRPELVKNGQFHIPSITWEHTGRYGCQYYSRARWSELSDPLVLVMTGAYPKPTLSAQPSPVVTSGGRVTLQCESQVAFGGFILCKEGEDEHPQCLNSQPHARGSSRAIFSVGPVSPNRRWSHRCYGYDLNSPYVWSSPSDLLELLVPGVSKKPSLSVQPGPVMAPGESLTLQCVSDVGYDRFVLYKEGERDLRQLPGRQPQAGLSQANFTLGPVSRSYGGQYRCYGAHNLSSECSAPSDPLDILITGQIRGTPFISVQPGPTVASGENVTLLCQSWRQFHTFLLTKAGAADAPLRLRSIHEYPKYQAEFPMSPVTSAHAGTYRCYGSLNSDPYLLSHPSEPLELVVSGPSMGSSPPPTGPISTPGPEDQPLTPTGSDPQSGLGRHL",binding result,binds
